Measured values taken from article PMC9574375 (Cancer Research, 2022).
Residue numbers refer to the chain shown, from its start. Names and notes keep the numbering of the source. Read-outs that look alike come from different tables or passages of the source.

B1: GST-tagged RET CLD4-CRD (amino acids 382–635) D567N (domain or fragment, human, UniProt P07949 382-635, looked up)
chain: QGPGAGVLLLHFNVSVLPVSLHLPSTYSLSVSRRARRFAQIGKVCVENCQAFSGINVQYKLHSSGANCSTLGVVTSAEDTSGILFVNDTKALRRPKCAELHYMVVATDQQTSRQAQAQLLVTVEGSYVAEEAGCPLSCAVSKRRLECEECGGLGSPTGRCEWRQGDGKGITRNFSTCSPSTKTCPNGHCDVVETQDINICPQDCLRGSIVGGHEPGEPRGIKAGYGTCNCFPEEEKCFCEPEDIQDPLCDELCR
B2: GST-tagged RET CLD4-CRD (amino acids 382–635), wild type (domain or fragment, human, UniProt P07949 382-635, looked up)
chain: B1 chain with N186D

What was measured:
[1] = biological target: the molecule itself; test: non-reducing SDS-PAGE and immunoblot or Coomassie staining
[2] = biological target: the molecule itself; test: as above; remark: listed apart in the source

| Protein | binding result [1] | binding result [2] |
| --- | --- | --- |
| B1 | binds |  |
| B2 |  | binds |
